Consider five molecules from US20070014767A1.

Test [1] concerns the target TGFβ1 (human recombinant) (human) (UniProt P01137). The test is described as follows: cell-based or functional assay.
The target is the same in test [2]. Description: flow cytometry; inhibition of binding of TGFβ1-biotin to MV-1-Lu cell receptors, peptide 420 µg/ml, peptide incubated with TGFβ1-biotin.
For test [3] the target is unchanged. Description: affinity labelling of MV-1-Lu cells with 125I-TGFβ1, titration of P144. The conditions noted are these: scale: times the molar concentration of 125I-TGFβ1.
Test [4] has as its target TGFβ1 cell receptors on MV-1-Lu cells (mink). Description: cell-based or functional assay.
Test [5] has the same target. Description: flow cytometry; inhibition of binding of TGFβ1-biotin to MV-1-Lu cell receptors, peptide 420 µg/ml, peptide incubated with the cells. For orientation: In flow cytometry, cells or beads pass a laser one at a time.

Sequence of TGFβ1 (human recombinant) (human) (P01137 279-390 limits assumed): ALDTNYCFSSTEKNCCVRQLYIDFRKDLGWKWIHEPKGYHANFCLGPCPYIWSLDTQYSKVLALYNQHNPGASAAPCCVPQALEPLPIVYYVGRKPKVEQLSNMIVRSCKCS

Take peptide P144(729-742): the Bioassay (% inhibition) of TGFβ1 activity: growth of MV-1-Lu cells, TGFβ1 200 pg/ml, peptide 200 µg/ml in test [1] was 88%. Besides, the Cytometry (% inhibition) in test [2] stood at 80%. Further, the peptide concentration at which inhibition of 125I-TGFβ1 binding to the cell receptors is lost in test [3] was found to be 200000.
Turning to HEPKGYHANFCLGPCPYIWSLDT [peptide P29(313-335)], the Bioassay (% inhibition) of TGFβ1 activity: growth of MV-1-Lu cells, TGFβ1 200 pg/ml, peptide 200 µg/ml in test [4] is 77.6%. In test [5], this molecule came in with a Cytometry (% inhibition) of 92.3%.
With HANFCLGPCPYIWSLA [peptide P11(319-333)], in test [4], the Bioassay (% inhibition) of TGFβ1 activity: growth of MV-1-Lu cells, TGFβ1 200 pg/ml, peptide 200 µg/ml came out at 40%. The Cytometry (% inhibition) in test [5] is 86%.
The matching figures for LYNQHNPGASAAPCCA [peptide P18(343-358)]: 18.2% and 6.5%.
In test [4], FCLGPCPYIWSLDTA [peptide P12(322-335)] returned a Bioassay (% inhibition) of TGFβ1 activity: growth of MV-1-Lu cells, TGFβ1 200 pg/ml, peptide 200 µg/ml of 96%. Besides, the Cytometry (% inhibition) in test [5] came to 77%.
